PMC3145769, “Cyclin A2 Mutagenesis Analysis: A New Insight into CDK Activation and Cellular Localization Requirements” (PLoS ONE, 2011)

Key:
Experiment in all cases: co-IP; anti-Flag M2 affinity gel on extracts of NIH3T3 cells transfected with 3xFlag Cyclin A2 alleles; endogenous partners detected by Western blot; densitometry (ImageQuantTL) normalised to immunoprecipitated Cyclin A2, percent of WT; repeated 5 times
Conditions in all cases: partners not purified
[1] = molecular target: T1, Cyclin A2 L282R, C-terminally fused to 3 Flag tags (mouse, UniProt P51943 1-422, L282R)
T1 construct: Cyclin A2, mouse; cDNA obtained from NIH3T3 cells by RT-PCR; source: NIH3T3 cells, transfected, in cell extracts; not shown: 3xFlag, C-terminal, kept

[2] = molecular target: T2, Cyclin A2 D171A, C-terminally fused to 3 Flag tags (mouse, UniProt P51943 1-422, D171A)
T2 construct: Cyclin A2, mouse; cDNA obtained from NIH3T3 cells by RT-PCR; source: NIH3T3 or HEK 293 cells, transfected, in cell extracts; not shown: 3xFlag, C-terminal, kept

[3] = molecular target: T3, Cyclin A2 L204A, C-terminally fused to 3 Flag tags (mouse, UniProt P51943 1-422, L204A)
T3 construct: Cyclin A2, mouse; cDNA obtained from NIH3T3 cells by RT-PCR; source: NIH3T3 or HEK 293 cells, transfected, in cell extracts; not shown: 3xFlag, C-terminal, kept

[4] = molecular target: T4, Cyclin A2 WT, C-terminally fused to 3 Flag tags (mouse, UniProt P51943 1-422)
T4 construct: Cyclin A2, mouse; cDNA obtained from NIH3T3 cells by RT-PCR; Same construct transfected into mouse NIH3T3 (assay a1) and human HEK 293 (assay a2); also called WT Cyclin A2 allele; Flag tagged WT Cyclin A2; source: NIH3T3 or HEK 293 cells, transfected, in cell extracts; not shown: 3xFlag, C-terminal, kept

[5] = molecular target: T5, Cyclin A2 M200A, C-terminally fused to 3 Flag tags (mouse, UniProt P51943 1-422, M200A)
T5 construct: Cyclin A2, mouse; cDNA obtained from NIH3T3 cells by RT-PCR; source: NIH3T3 or HEK 293 cells, transfected, in cell extracts; not shown: 3xFlag, C-terminal, kept

[6] = molecular target: T6, Cyclin A2 E210Q, C-terminally fused to 3 Flag tags (mouse, UniProt P51943 1-422, E210Q)
T6 construct: Cyclin A2, mouse; cDNA obtained from NIH3T3 cells by RT-PCR; source: NIH3T3 cells, transfected, in cell extracts; not shown: 3xFlag, C-terminal, kept

[7] = molecular target: T7, Cyclin A2 K256A, C-terminally fused to 3 Flag tags (mouse, UniProt P51943 1-422, K256A)
T7 construct: Cyclin A2, mouse; cDNA obtained from NIH3T3 cells by RT-PCR; source: NIH3T3 cells, transfected, in cell extracts; not shown: 3xFlag, C-terminal, kept

[8] = molecular target: T8, Cyclin A2 E285A, C-terminally fused to 3 Flag tags (mouse, UniProt P51943 1-422, E285A)
T8 construct: Cyclin A2, mouse; cDNA obtained from NIH3T3 cells by RT-PCR; source: NIH3T3 cells, transfected, in cell extracts; not shown: 3xFlag, C-terminal, kept

[9] = molecular target: T9, Cyclin A2 E180A, C-terminally fused to 3 Flag tags (mouse, UniProt P51943 1-422, E180A)
T9 construct: Cyclin A2, mouse; cDNA obtained from NIH3T3 cells by RT-PCR; source: NIH3T3 cells, transfected, in cell extracts; not shown: 3xFlag, C-terminal, kept
T9 sequence (P51943 whole entry E180A, the tested form may be a part): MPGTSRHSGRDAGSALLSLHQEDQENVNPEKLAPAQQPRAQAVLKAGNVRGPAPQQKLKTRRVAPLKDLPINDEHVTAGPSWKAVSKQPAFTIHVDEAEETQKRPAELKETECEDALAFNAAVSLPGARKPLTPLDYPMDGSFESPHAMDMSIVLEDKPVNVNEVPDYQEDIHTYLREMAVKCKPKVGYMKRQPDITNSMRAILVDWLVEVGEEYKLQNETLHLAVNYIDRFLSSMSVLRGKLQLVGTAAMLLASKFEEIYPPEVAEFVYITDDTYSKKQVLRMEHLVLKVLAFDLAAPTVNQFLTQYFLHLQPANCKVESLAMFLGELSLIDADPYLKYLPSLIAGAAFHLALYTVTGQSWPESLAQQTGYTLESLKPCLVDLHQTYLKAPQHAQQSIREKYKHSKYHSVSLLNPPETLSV

T6 sequence (P51943 whole entry E210Q, the tested form may be a part): as the sequence (P51943 whole entry E180A, the tested form may be a part) above, with A180E, E210Q counted along it
T3 sequence (P51943 whole entry L204A, the tested form may be a part): as the sequence (P51943 whole entry E180A, the tested form may be a part) above, with A180E, L204A counted along it
T8 sequence (P51943 whole entry E285A, the tested form may be a part): as the sequence (P51943 whole entry E180A, the tested form may be a part) above, with A180E, E285A counted along it
T4 sequence (P51943 whole entry, the tested form may be a part): as the sequence (P51943 whole entry E180A, the tested form may be a part) above, with A180E counted along it
T7 sequence (P51943 whole entry K256A, the tested form may be a part): as the sequence (P51943 whole entry E180A, the tested form may be a part) above, with A180E, K256A counted along it
T1 sequence (P51943 whole entry L282R, the tested form may be a part): as the sequence (P51943 whole entry E180A, the tested form may be a part) above, with A180E, L282R counted along it
T2 sequence (P51943 whole entry D171A, the tested form may be a part): as the sequence (P51943 whole entry E180A, the tested form may be a part) above, with D171A, A180E counted along it
T5 sequence (P51943 whole entry M200A, the tested form may be a part): as the sequence (P51943 whole entry E180A, the tested form may be a part) above, with A180E, M200A counted along it

| percent co-precipitated relative to WT [1] | percent co-precipitated relative to WT [2] | percent co-precipitated relative to WT [3] | percent co-precipitated relative to WT [4] | percent co-precipitated relative to WT [5] | percent co-precipitated relative to WT [6] | percent co-precipitated relative to WT [7] | percent co-precipitated relative to WT [8] | percent co-precipitated relative to WT [9] | Binder |
| --- | --- | --- | --- | --- | --- | --- | --- | --- | --- |
| 44.5% | 100% | 15.2% | 100% | 69.2% | 95.7% | 19.3% | 36.7% |  | p27 (endogenous, NIH3T3) (natural protein, mouse (endogenous in NIH3T3), UniProt P46414 1-197, looked up, p27, endogenous protein of mouse NIH3T3 cells, detected by Western blot; source: endogenous, NIH3T3 cell extract) MSNVRVSNGSPSLERMDARQAEHPKPSACRNLFGPVNHEELTRDLEKHCRDMEEASQRKWNFDFQNHKPLEGRYEWQEVERGSLPEFYYRPPRPPKSACKVLAQESQDVSGSRQAVPLIGSQANSEDRHLVDQMPDSSDNPAGLAEQCPGMRKRPAAEDSSSQNKRANRTEENVSDGSPNAGTVEQTPKKPGLRRQT |
| 58.6% | 100% | 65.6% | 100% | 79.2% | 70% | 17% | 8.6% | 19.6% | p107 (endogenous, NIH3T3) (natural protein, mouse (endogenous in NIH3T3), UniProt Q64701 1-1063, looked up, p107, endogenous protein of mouse NIH3T3 cells, detected by Western blot; source: endogenous, NIH3T3 cell extract) MFEDEPHAEGAAAVAAAREALQALCQELNLDEGSAAEALDDFTAIRGNYSLEGEVIHWLACSLYVACRKSIIPTVGKGVMEGNCVSLTRILRSAKLSLIQFFSKMKKWMDMSNLPQEFRERIERLERNFEVSTVIFKKFEPIFLDIFQNPYEEPPKLPRSRKQRRIPCSVKDLFNFCWTLFVYTKGNFRMIGDDLVNSYHLLLCCLDLIFANAIMCPNRRDLLNPSFKGLPSDFHAPDFKAAEEPPCIIAVLCDLHDGLLVEAKGIKEHYFKPYISKLFDKKILKGECLLDLSSFTDNSKAVNKEYEEYVLTVGDFDERIFLGADAEEEIGTPRKFTADTPFGKLTSQASVECNLQQHFEKKRSFAPSTPLTGRRYLQEKEAVTTPVASATQSVSRLQSIVAGLKSAPSEQLLNIFESCMRNPMGNIIKIVKGIGETFCQHYTQSTDKQPGSHIDFAVNRLKLAEILYYKILETIMVQETRRLHGMDMSVLLEQDIFHKSLMACCLEIVLFAYSSPRTFPWIIEVLDLQPFYFYKVIEVVIRSEEGLSRDMVKHLNSIEEQILESLAWTNNSALWEALHASANRVPSCEEVIFPNNFEIGNGGNVQGHLPMMPMSPIIHPRVKEVRTDSGSLRQDMQPLSPISVHERYSSPAAGSAKRRLFGDDPPKDTLMDKIMAEGTKLKIAPSSVTAESLSISPGQALLTMATTTVTGTTGRKVTVPLHGIANDAGEITLVPISMNPTQESTAESPVSLTAQSLIGTSPKQTHLTKAQDAHLTGVSKPKRTGSLALFYRKVYHLASVRLRDLCLKLDVSNELRRKIWTCFEFTLVHCPDLMKDRHLDQLLLCAFYIMAKVTKEERTFQEIMKSYRNQPQANSHVYRSVLLKSIPGGVVVYNGDCEMTDGDIEDATKTPNCSSEPVKEERGDLIKFYNTVYVGRVKSFALKYDLSNQDHIMDAPPLSPFPHIKQQPGSPRRISQQHSLYVSPHKNGAGLTPRSALLYKFNGSPSKSLKDINNMIRQGEQKTKKRVIAISGDADSPAKRLCQENDDVLLKRLQDVVSERANH |
